Test results as given in PMC6631030, “Unraveling Sugar Binding Modes to DC-SIGN by Employing Fluorinated Carbohydrates” (Molecules, 2019).

Molecular target: the molecule itself
Assay: negative-stain TEM; purified refolded DC-SIGN ECD, negative staining, Jeol JEM-1230

B1: dendritic cell-specific intercellular adhesion molecule 3-grabbing non-integrin (DC-SIGN) full extracellular domain, tetramer (domain or fragment, UniProt Q9NNX6 70-404, looked up)
chain: EQSRQDAIYQNLTQLKAAVGELSEKSKLQEIYQELTQLKAAVGELPEKSKLQEIYQELTRLKAAVGELPEKSKLQEIYQELTWLKAAVGELPEKSKMQEIYQELTRLKAAVGELPEKSKQQEIYQELTRLKAAVGELPEKSKQQEIYQELTRLKAAVGELPEKSKQQEIYQELTQLKAAVERLCHPCPWEWTFFQGNCYFMSNSQRNWHDSITACKEVGAQLVVIKSAEEQNFLQLQSSRSNRFTWMGLSDLNQEGTWQWVDGSPLLPSFKQYWNRGEPNNVGEEDCAEFSGNGWNDDKCNLAKFWICKKSAASCSRDEEQFLSPAPATPNPPPA
notes: DC-SIGN, full extracellular domain (ECD), residues 70-404; the fragment was inserted in pET15b via NdeI and BamHI, and the protein was purified on mannose-Sepharose, not by a tag; The results call it 'tetrameric full-length DC-SIGN', the methods give the ECD 70-404; also called DC-SIGN tetramer; tetrameric DC-SIGN
stoichiometry N: 4
